According to patent US11260100B2, “Compositions targeting the interaction domain between p27Kip1 and Brk and methods of use thereof to inhibit p27 Y phosphorylation and cdk4 activity” (The Research Foundation for the State University of New York, priority 2014, dated 2022):
Ends that are not written are not given here.

Experiments:
metastatic breast cancer = metastatic breast cancer patients; cited from earlier work
[1] = target: T1, Brk phosphorylation of p27 (Homo sapiens, UniProt P46527+Q13882); assay: In vitro Brk phosphorylation of p27 with competitor, pY88/pY74 immunoblot; type: biochemical; settings: increasing amounts of competitor
T1 construct: were incubated with p27 before the addition of full length Brk and ATP; We incubated full length p27 with Src or Brk in the presence of ATP; purchased SignalChem (GST-PTK6/Brk) or Invitrogen (His-PTK6/Brk); host or cells: p27 made in house in E. coli
Protocol: (§1) FIGS. 3A-3D: SH3:PxxP interaction is required for p27 Y88 phosphorylation. (FIG. 3A) p27 and Brk were incubated with ATP and with increasing concentrations of the PxxP competitor, F58-106, followed by immunoblot analysis with pY88, pY74 and p27 antibodies. Lane 5: +equimolar amount of F58-106 and p27, lane 6: ++2.5×F58-106, lane 7: +++5×F58-106, lane 8: ++++10×F58-106. (FIG. 3B) GST-Brk, p27 and F58-106 were incubated, immunoprecipitated with GST antibodies, followed by immunblot analysis with GST or p27 antibodies. (FIG. 3C) Increasing amounts of GST-SH3, GST-SH2 or GST peptides were incubated with p27, followed by immunoblot analysis with pY88, pY74, p27 and GST antibodies. Lanes 3, 5, 7: 2.5× competitor, lanes 4, 6, […]: 5× competitor. (FIG. 3D) GST-SH3, GST-SH2 or GST peptides were incubated with p27 or ΔK1/K3, followed by metal agarose chromatography and immunoblot analysis with GST and p27 antibodies. Loading control: GST peptides added to the reaction which are not representative of association.
FIGS. 8A-8G: Alt Brk (SEQ ID NO: 17) acts as an endogenous inhibitor of Brk. (FIG. 8A) Flag tagged WT p27 was incubated with increasing amount of Flag tagged Alt-Brk (lanes 5-7) in presence of equal amount of Brk. Lane 5: +equimolar Brk and Alt, lane 6: ++2.5×Alt, lane 7: +++5×Alt Immunoblot analysis was performed using Flag, pY88 and pY74 antibodies. (FIG. 8B) Alt-Brk expressing cells were plated on day 0. They were induced (+Tet) or uninduced (−Tet) on day 1 and cells were harvested on days 2, 3 and 4 Immunoblot analysis was performed using N-terminal Brk, C-terminal Brk, Rb, Ser780 pRb, Flag or Actin antibodies. (FIG. 8C) p27 was immunoprecipitated from induced (+) or un-induced (−) Alt Brk expressing cells and immunoblot analysis was performed with p27, pY88 and pY74 antibodies. (FIG. 8D) Alt Brk or TRE3G vector alone cells were treated with + or −Tet and cell counts were used to monitor proliferation. […] (FIG. 8F) p27 was immunoprecipitated from MCF7 cells that were either contact arrested (G0), asynchronous (A), or serum starved with 1% and 0% serum for 48 h. Immunoblot analysis was performed to probe for p27, pY88 and pY74. IgG and Mv1Lu lysates served as a negative control. (FIG. 8G) Expression of WT or mutant p27s was induced by adding Tetracycline to the culture media. p27 was immunoprecipitated from cell lysates and probed for p27, pY88 and pY74 Immunoprecipitation with IgG served as a negative control.
It appeared that the SH3:PxxP interaction was required for Y88 phosphorylation. […]
To directly verify this, we expressed a Flag-tagged Alt-Brk in bacteria and purified this 15 Kd protein (FIG. 8A). When p27 was incubated with Brk, Y88 and Y74 phosphorylation was detected by immunoblot analysis (FIG. 8A, lane 3). […]

GST-Brk = target: T2, GST-Brk (Homo sapiens, UniProt Q13882); assay: GST immunoprecipitation of GST-Brk with p27 and/or F58-106; type: binding
T2 construct: this K1-containing peptide was sufficient to associate with full length Brk; purchased SignalChem
Protocol: as §1
We then performed the converse reaction, and increasing amounts of individual recombinant, GST-tagged pieces of Brk (GST-SH2, GST-SH3) or GST peptides were incubated with p27 before the addition of full length Brk and ATP. The reactions were probed by immunoblot analysis with pY88 and pY74 antibodies (FIG. 3C).

ΔK1/K3 p27 = target: T3, ΔK1/K3 p27 (Homo sapiens, UniProt P46527, K189A/K190A/P188A/P191A/P91A/P92A/P94A/P95A); assay: Metal agarose chromatography of His-ΔK1/K3 p27 with GST peptides; type: binding; settings: absence of ATP
T3 construct: made in house; host or cells: E. coli
Protocol: as §1
(§2) We incubated the GST, GST-SH3, or GST-SH2 peptides with His-tagged versions of p27 and the ΔK1/K3 mutant, isolated complexes by metal agarose chromatography and performed immunoblot analysis with GST antibodies (FIG. 3D). […] However, this binding was independent of the PxxP K1 site (FIG. 3D, lane 3). […]

WT p27 = target: T4, WT p27 (Homo sapiens, UniProt P46527); assay: Metal agarose chromatography of His-p27 with GST peptides; type: binding; settings: absence of ATP
T4 construct: made in house; host or cells: E. coli
Protocol: as §1, §2

Brk SH3 domain = target: T5, Brk SH3 domain (Homo sapiens, UniProt Q13882); assay: Phage-ELISA of GST-PxxP peptides (K1, K2, K3) against SH3 phages; type: binding; settings: GST-fusion PxxP peptides
T5 construct: made in house; host or cells: phage supernatants
T5 sequence (Q13882 8-72 limits assumed): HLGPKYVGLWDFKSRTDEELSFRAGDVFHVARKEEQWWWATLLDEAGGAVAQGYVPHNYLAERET
Source text: (§3) FIGS. 1A-1C: Brk binds to p27 with high affinity in vitro. (FIG. 1A) p27 sequence highlighting the proline tracts of the three putative SH3 domain recruitment sites (PxxP): K1 (90-96), K2 (114-117) and K3 (188-195) (SEQ ID NO: 1). Phage-ELISA-analysis of SFK SH3 interactions with p27 (FIG. 1B) or p27's PxxP motifs (FIG. 1C). Data shown is the mean of three independent experiments±standard deviation after normalization and subtraction of the background binding to GST. (FIG. 1C) Recombinantly produced GST-K1, (amino acids 85-102 of SEQ ID NO: 1), −K2, (amino acids 108-123 of SEQ ID NO: 1), −K3 (amino acids 182-197 of SEQ ID NO: 1), or GST was immobilized in 96-well plates and analyzed for binding of the phages with the Brk-, Frk-, Yes-, or Abl-SH3 domain.
The following materials and methods are provided to facilitate the practice of the present invention. • Antibodies. Mouse Anti-p27(Kip1), BD Biosciences 610242. Cdk4 (DCS-35), p27 (N-20), C-terminal Brk (C-18), Brk (D-6), N-terminal Brk (N-20), c-Src (SC-18), Cyclin D1 (H 295), ARHGDIA (A-20), Santa Cruz Biotechnology. Anti-beta galactosidase antibody is from RND systems (af6464). Phosphotyrosine (P-Tyr-100), Cell Signaling Technology. Cdk4 (C-term, Cat. No. AP7520b), Abgent. GST (PRB-112C), Covance. Flag (F3165), Actin (A2066), Sigma Aldrich. Phospho Brk (Tyr342), EMD Millipore. pY74, Y88 and Y89 phospho-specific antibodies were generated by immunization of rabbits with phosphor-specific p27 peptides (Invitrogen). Negative- and positive-affinity chromatography with non-phosphorylated and phosphorylated peptides respectively, were performed to purify the antibodies. The antibodies are specific only for Y88,Y89, Y74 phosphorylation respectively (FIG. 2B, data not shown). • Enzymes. Gst-PTK6/Brk, GST-Src (SignalChem), His-Abl (New England Biolabs), His-PTK6/Brk, His-Src (Invitrogen) were used according to manufacturer's specifications. […] Phage supernatants were generated and binding of SH3-phages to recombinantly produced His-tagged-p27 or GST-PxxP-peptides was analyzed as described (28). • Construction of mutants and peptides. […]

full-length p27 = target: T6, full-length p27 (Homo sapiens, UniProt P46527); assay: Phage-ELISA of SFK SH3 domain interactions with p27; settings: phages carry many reiterated SH3 domains, which would enhance binding; read-out: Kd of interaction with full-length p27
T6 construct: made in house; host or cells: E. coli
Source text: as §3
The following materials and methods are provided to facilitate the practice of the present invention. • Antibodies. Mouse Anti-p27(Kip1), BD Biosciences 610242. Cdk4 (DCS-35), p27 (N-20), C-terminal Brk (C-18), Brk (D-6), N-terminal Brk (N-20), c-Src (SC-18), Cyclin D1 (H 295), ARHGDIA (A-20), Santa Cruz Biotechnology. Anti-beta galactosidase antibody is from RND systems (af6464). Phosphotyrosine (P-Tyr-100), Cell Signaling Technology. […] Phage supernatants were generated and binding of SH3-phages to recombinantly produced His-tagged-p27 or GST-PxxP-peptides was analyzed as described (28). • Construction of mutants and peptides. […]

T1 sequence (Q13882 whole entry): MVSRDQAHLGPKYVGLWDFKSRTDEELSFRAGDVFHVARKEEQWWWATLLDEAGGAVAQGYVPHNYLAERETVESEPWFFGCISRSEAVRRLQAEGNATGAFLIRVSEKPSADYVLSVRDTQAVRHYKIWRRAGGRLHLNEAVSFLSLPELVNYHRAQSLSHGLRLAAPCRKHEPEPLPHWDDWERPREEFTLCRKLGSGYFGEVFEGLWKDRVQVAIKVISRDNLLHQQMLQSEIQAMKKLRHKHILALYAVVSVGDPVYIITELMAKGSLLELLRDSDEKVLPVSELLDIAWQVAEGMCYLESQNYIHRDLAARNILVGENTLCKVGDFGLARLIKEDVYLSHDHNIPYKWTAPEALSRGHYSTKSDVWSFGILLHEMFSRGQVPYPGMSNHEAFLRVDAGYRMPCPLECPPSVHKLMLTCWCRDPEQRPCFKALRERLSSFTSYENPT
T1 sequence (P46527 whole entry): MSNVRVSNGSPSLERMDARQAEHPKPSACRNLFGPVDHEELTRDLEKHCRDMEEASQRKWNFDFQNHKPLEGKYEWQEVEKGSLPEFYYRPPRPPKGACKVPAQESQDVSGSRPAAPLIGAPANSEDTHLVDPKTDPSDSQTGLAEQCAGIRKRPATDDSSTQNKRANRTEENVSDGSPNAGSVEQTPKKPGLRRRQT
T2 sequence (Q13882 whole entry): as the sequence (Q13882 whole entry) above
T3 sequence (P46527 whole entry P91A/P92A/P94A/P95A/P188A/K189A/K190A/P191A): as the sequence (P46527 whole entry) above, with P91A, P92A, P94A, P95A, P188A, K189A, K190A, P191A counted along it
T4 sequence (P46527 whole entry): as the sequence (P46527 whole entry) above
T6 sequence (P46527 whole entry, the tested form may be a part): as the sequence (P46527 whole entry) above

## N#Cc1ccc(C(c2ccc(C#N)cc2)n2cncn2)cc1 [letrozole]
Metastatic breast cancer
  median PFS: 10.2 months

## F58-106: Flagged tagged K1-site containing peptide, p27 residues 58 to 106 (RKWNFDFQNHKPLEGKYEWQEVEKGSLPEFYYRPPRPPKGACKVPAQES; also: Flag tag, site not given here)
[1]
  p27 Y74 phosphorylation by Brk: only slightly reduced
  p27 Y88 phosphorylation by Brk: decreased
GST-Brk
  association with GST-Brk: interacted

## GST-SH2: recombinant GST-tagged SH2 piece of Brk [reference compound]
[1]
  p27 Y74 phosphorylation by Brk: did not reduce
  p27 Y88 phosphorylation by Brk: did not reduce
ΔK1/K3 p27
  association with ΔK1/K3 p27: bound
WT p27
  association with WT p27: bound

## K1: GST-fusion peptide, amino acids 85-102 of p27 (SEQ ID NO: 1) (PEFYYRPPRPPKGACKVP; also: GST-fusion peptide; listed as Homo sapiens)
Brk SH3 domain
  interaction with Brk SH3 domain: weakly

## K2: GST-fusion peptide, amino acids 108-123 of p27 (SEQ ID NO: 1) (DVSGSRPAAPLIGAPA; also: GST-fusion peptide; listed as Homo sapiens)
Brk SH3 domain
  interaction with Brk SH3 domain: No SH3 domains interacted

## K3: GST-fusion peptide, amino acids 182-197 of p27 (SEQ ID NO: 1) (GSVEQTPKKPGLRRRQ; also: GST-fusion peptide; listed as Homo sapiens)
Brk SH3 domain
  interaction with Brk SH3 domain: strongly

## SH3 domain of Brk: Brk SH3 domain displayed on phages (SEQ ID NO: 2)
full-length p27
  Kd: 250 nM
